# Measured values reported in US10391150B2, “Treatments for migraine and related disorders” (The University of Chicago, priority 2011, dated 2019).
# Entries after “also recorded” stand apart in the source; their conditions may differ.
# B1: Interferon-gamma (protein, listed as Homo sapiens)
# chain: MKYTSYILAFQLCIVLGSLGCYCQDPYVKEAENLKKYFNAGHSDVADNGTLFLGILKNWKEESDRKIMQSQIVSFYFKLFKNFKDDQSIQKSVETIKEDMNVKFFNSNKKKRDDFEKLTNYSVTDLNVQRKAIHELIQVMAELSPAAKTGKRKRSQMLFRGRRASQ
# Test system: myelin basic protein (MBP)
# Assay: Myelin basic protein (MBP) Western blot in hippocampal slice cultures
# Type: cell-based, rat
# Procedure: FIGS. 14A-14C. Reduced myelin basic protein (MBP) from SD depends on IFN-γ/T-cell activation and sphingomylinase. […] Thus, confirming involvement of T cells.
# FIGS. 15A-15C. Physiological and transient elevation [i.e., phasic (see FIG. 1)] of IFN-γ triggers completely opposite effects. Transient (i.e., 500 U/mL×12 hours; all groups n≥5) exposure of hippocampal slice cultures was nutritive when assessed seven days later.
molecule,measurement,setting,value
B1,MBP levels,IFN-γ with co-administration of TNF-α (100 ng/mL),further decline in MBP
same,MBP levels,chronically applied IFN-γ 500 U/mL × 24 hours,reduce MBP levels
same,MBP versus baseline,"transient (pulsed) IFN-γ 500 U/mL × 12 hours, assessed seven days later",MBP rises above baseline; also recorded: increased above baseline
